We go through four molecules from patent US20260022175A1 (Chugai, published 2026).

One may read the Kd as the equilibrium constant for the complex coming apart. Read a low Kd as a tighter complex.

To fix the notation:
T1: human FcγRIIb extracellular domain (human, UniProt P31994 43-217)
T1 construct: extracellular domain; also called hFcγR IIb
T1 sequence (looked up): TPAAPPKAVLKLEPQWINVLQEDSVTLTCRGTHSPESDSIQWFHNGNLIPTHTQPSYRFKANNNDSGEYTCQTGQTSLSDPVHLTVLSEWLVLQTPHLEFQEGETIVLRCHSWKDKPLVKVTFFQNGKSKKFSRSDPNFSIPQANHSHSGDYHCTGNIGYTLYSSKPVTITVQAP

T2: human FcγRIIa R extracellular domain (human, UniProt P12318 34-217)
T2 construct: extracellular domain; also called hFcγR IIa R
T2 sequence (looked up): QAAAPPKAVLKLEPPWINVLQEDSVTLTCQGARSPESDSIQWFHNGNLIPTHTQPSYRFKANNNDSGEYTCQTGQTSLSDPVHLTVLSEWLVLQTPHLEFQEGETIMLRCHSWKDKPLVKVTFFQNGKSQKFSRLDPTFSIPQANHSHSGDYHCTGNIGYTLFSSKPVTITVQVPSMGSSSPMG

T3: human FcγRIIa H extracellular domain (human, UniProt P12318 34-217)
T3 construct: extracellular domain; also called hFcγR IIa H
T3 sequence (looked up): T2 sequence (looked up) with R134H

T4: hFcγRIIaH on hFcγRIIaH-expressing Jurkat cells (human, UniProt P12318 34-317)
T4 sequence (looked up): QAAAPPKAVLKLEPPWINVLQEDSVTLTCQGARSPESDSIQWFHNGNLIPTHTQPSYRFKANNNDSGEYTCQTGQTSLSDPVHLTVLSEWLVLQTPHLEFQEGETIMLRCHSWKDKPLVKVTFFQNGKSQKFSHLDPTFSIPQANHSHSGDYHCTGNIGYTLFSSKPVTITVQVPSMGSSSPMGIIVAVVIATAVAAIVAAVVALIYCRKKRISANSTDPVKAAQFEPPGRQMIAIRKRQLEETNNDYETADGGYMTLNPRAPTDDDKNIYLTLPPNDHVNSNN

B1: H240-Kn443/L73-k0//H240-Hl408/L73-k0 (antibody, human IgG1, kappa)
heavy 1: QDQLVQSGAEVKKPGASVKVSCKASGFNIKDTYIQWVRQAPGQGLEWMGRIDPLRKQTKYREKFEGRVTITADTSTNTAYMELSSLRSEDTAVYYCVRSGREFDYWGQGTLVTVSSASTKGPSVFPLAPSSKSTSGGTAALGCLVKDYFPEPVTVSWNSGALTSGVHTFPAVLQSSGLYSLSSVVTVPSSSLGTQTYICNVNHKPSNTKVDKKVEPKSCDKTHTCPPCPAPEFQWGPMVFLFPPKPKDTLMISRTPEVTCVVVDVSDEEPEVKFNWYVDGVEVHNAKTKPREEQYNATYRVVSVLTVLHQDWLNGKEYKCKVSNDALPAPIEKTISKAKGQPREPQVCTLPPSRDELTKNQVSLWCLVKGFYPSDIAVEWESNGQPENNYKTTPPVLDSDGSFFLYSKLTVDKSRWQQGNVFSCSVMHEALHNHYTQKSLSLSP
heavy 2: QDQLVQSGAEVKKPGASVKVSCKASGFNIKDTYIQWVRQAPGQGLEWMGRIDPLRKQTKYREKFEGRVTITADTSTNTAYMELSSLRSEDTAVYYCVRSGREFDYWGQGTLVTVSSASTKGPSVFPLAPSSKSTSGGTAALGCLVKDYFPEPVTVSWNSGALTSGVHTFPAVLQSSGLYSLSSVVTVPSSSLGTQTYICNVNHKPSNTKVDKKVEPKSCDKTHTCPPCPAPELLAGPSVFLFPPKPKDTLMISRTPEVTCVVVDVSHEEPEVKFNWYVDGVEVHNAKTKPREEQYNATYRVVSVLTVLHQDWLNGKEYKCKVSNDALPAPIEETISKAKGQPREPQVYTLPPSRCELTKNQVSLSCAVKGFYPSDIAVEWESNGQPENNYKTTPPVLDSDGSFFLVSKLTVDKSRWQQGNVFSCSVMHEALHNHYTQKSLSLSP
light: DIQMTQSPSSLSASVGDRVTITCRASQDIHKYIAWYQQKPGQAPRLLIQYTSTLQPGVPSRFSGSGSGTDYTFTISSLQPEDIATYYCLQYEQLRTFGGGTKVEIKRTVAAPSVFIFPPSDEQLKSGTASVVCLLNNFYPREAKVQWKVDNALQSGNSQESVTEQDSKDSTYSLSSTLTLSKADYEKHKVYACEVTHQGLSSPVTKSFNRGEC
notes: also called EGL-ART3; ART3
B2: H240-G1d/L73-k0 (antibody, human IgG1, kappa)
heavy: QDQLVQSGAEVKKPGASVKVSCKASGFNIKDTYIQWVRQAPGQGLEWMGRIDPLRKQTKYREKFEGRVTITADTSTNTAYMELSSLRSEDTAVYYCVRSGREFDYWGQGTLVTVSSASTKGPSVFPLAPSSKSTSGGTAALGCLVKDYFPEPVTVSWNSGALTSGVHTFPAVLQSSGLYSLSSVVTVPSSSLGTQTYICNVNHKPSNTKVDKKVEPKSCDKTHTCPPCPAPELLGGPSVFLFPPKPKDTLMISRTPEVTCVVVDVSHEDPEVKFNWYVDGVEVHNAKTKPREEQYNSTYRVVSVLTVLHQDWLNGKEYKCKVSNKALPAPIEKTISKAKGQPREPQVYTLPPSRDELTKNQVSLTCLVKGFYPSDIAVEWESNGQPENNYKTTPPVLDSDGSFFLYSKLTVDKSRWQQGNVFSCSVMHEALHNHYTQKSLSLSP
light: B1 light
notes: Anti-human Epiregulin antibody with the human IgG1 constant region G1d (C-terminal Gly and Lys deleted); also called EGL-G1d
B3: H240-Kn461/L73-k0//H240-Hl443/L73-k0 (antibody, human IgG1, kappa)
heavy 1: B1 heavy 1 with T249V, T306P, I331E
heavy 2: B1 heavy 2 with T249V, T306P, I331E
light: B1 light
notes: also called EGL-ART8; ART8
B4: H240-Kn462/L73-k0//H240-Hl441/L73-k0 (antibody, human IgG1, kappa)
heavy 1: B1 heavy 1 with T249V, T306P
heavy 2: B1 heavy 2 with T249V, T306P
light: B1 light
notes: also called EGL-ART5; ART5

Numbering of substitutions follows the chain as printed.

T8 sequence (P02745 23-245 limits assumed, chain 1 of 3): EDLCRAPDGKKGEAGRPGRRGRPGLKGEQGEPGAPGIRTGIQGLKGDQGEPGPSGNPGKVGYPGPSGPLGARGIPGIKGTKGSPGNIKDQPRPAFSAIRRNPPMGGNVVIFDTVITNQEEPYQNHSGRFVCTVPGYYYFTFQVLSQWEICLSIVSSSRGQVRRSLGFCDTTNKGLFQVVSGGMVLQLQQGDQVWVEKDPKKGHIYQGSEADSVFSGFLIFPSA
T8 sequence (P02746 28-253 limits assumed, chain 2 of 3): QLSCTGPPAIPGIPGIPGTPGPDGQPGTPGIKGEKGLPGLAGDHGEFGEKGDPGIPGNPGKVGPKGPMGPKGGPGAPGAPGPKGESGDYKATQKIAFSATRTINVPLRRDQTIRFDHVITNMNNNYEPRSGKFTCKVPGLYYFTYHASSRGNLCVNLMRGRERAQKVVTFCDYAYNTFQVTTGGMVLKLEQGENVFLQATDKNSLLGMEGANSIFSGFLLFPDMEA
T8 sequence (P02747 29-245 limits assumed, chain 3 of 3): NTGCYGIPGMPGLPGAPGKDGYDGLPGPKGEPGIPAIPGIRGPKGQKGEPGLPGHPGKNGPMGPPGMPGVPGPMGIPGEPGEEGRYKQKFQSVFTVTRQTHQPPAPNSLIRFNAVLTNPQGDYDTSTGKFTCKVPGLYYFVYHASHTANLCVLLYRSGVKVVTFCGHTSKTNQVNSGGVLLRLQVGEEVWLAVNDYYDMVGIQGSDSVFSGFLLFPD
T7 sequence (P08637 17-208 F176V limits assumed): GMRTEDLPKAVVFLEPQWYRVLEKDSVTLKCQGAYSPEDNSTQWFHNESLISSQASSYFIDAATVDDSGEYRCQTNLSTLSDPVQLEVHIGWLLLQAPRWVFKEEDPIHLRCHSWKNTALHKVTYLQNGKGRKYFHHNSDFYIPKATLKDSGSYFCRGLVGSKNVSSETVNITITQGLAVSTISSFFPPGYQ

For the first assay, the target named is T5, human FcγRIIIa F extracellular domain (human, UniProt P08637 17-208).
T5 construct: extracellular domain; also called hFcγR IIIa F
T5 sequence (P08637 17-208): as the sequence (P08637 17-208 F176V limits assumed) above, with V160F counted along it
The assay can be described thus: SPR Biacore 8K+; KD of G1d divided by KD of this antibody.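 Note: antibodies captured on an anti-Fab-kappa streptavidin chip, soluble FcγR ectodomains flowed over, KD by steady-state fit for FcγRIIb and Langmuir kinetic model for the other receptors.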
As to B1, the “Relative value to KD between G1d and hFcgRs” value (from here on “Relative value”) amounted to 185.
For the molecule B2, the “Relative value” value was 1.
For B3, the “Relative value” value is 1970.
The same measure, in the same setting: for B4 the value was 148.

In a further assay the target is T1, human FcγRIIb extracellular domain. Described as above.
Regarding B1, the “Relative value” value is 1.6.
Consider B2, for which the “Relative value” value amounted to 1.
For B3, the “Relative value” value was determined as 2.8.
As for B4, the “Relative value” value worked out at 1.3.

In a further assay the target is T6, human FcγRIa extracellular domain (human, UniProt P12314 16-292).
T6 construct: extracellular domain; also called hFcγR Ia; hFcγRIa
T6 sequence (P12314 16-292): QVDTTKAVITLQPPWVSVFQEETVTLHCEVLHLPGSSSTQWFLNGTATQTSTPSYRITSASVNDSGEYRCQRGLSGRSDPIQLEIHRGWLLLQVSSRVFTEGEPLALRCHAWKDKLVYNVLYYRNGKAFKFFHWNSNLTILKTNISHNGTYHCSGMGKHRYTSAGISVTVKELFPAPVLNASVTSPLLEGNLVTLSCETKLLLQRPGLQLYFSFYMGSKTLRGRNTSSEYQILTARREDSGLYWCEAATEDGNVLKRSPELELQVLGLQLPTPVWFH
Described as above.
Consider B1, for which the “Relative value” value was 0.5.
For B2, the “Relative value” value is 1.
On to B3, for which the “Relative value” value was 3.2.
On the same count and under the same terms, the result for B4 reads 0.5.

A further assay has as its target T2, human FcγRIIa R extracellular domain. The assay is described as above.
As to B1, the “Relative value” value is 13.7.
The same measure, in the same setting: for B2 the value was 1; for B3, 13.2; for B4, 10.4.

The target of a further assay is T3, human FcγRIIa H extracellular domain. Described as above.
For the molecule B1, the “Relative value” value was 32.1.
As to B2, the “Relative value” value stood at 1.
Still for that read-out and setting: for B3 the value was 15; for B4, 33.9.

Another assay concerns the target T7, human FcγRIIIa V extracellular domain (human, UniProt P08637 17-208).
T7 construct: extracellular domain; also called hFcγR IIIa V
Described as above.
Consider B1, for which the “Relative value” value amounted to 114.
As to B2, the “Relative value” value amounted to 1.
Consider B3, for which the “Relative value” value was 695.
Take B4: the “Relative value” value worked out at 92.9.

The target of the next assay is T5, human FcγRIIIa F extracellular domain. Description: SPR Biacore 8K+, antibody captured, FcγR as analyte, 1:1 Langmuir model.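 Note: antibodies captured on a streptavidin chip through a biotinylated anti-human Fab kappa reagent, with FcγR extracellular domains injected in pH 7.4 phosphate buffer at 25 °C.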 A general note: SPR reads the build-up and loss of mass on a sensor chip optically.
The molecule B1 came in with a dissociation constant (Kd) of 16 nM.
For the molecule B2, the Kd was 2960 nM.
Regarding B3, binding was characterised by a dissociation constant (Kd) of 1.5 nM.
On to B4, for which binding was put at a Kd of 20 nM.

In the next assay the target is T6, human FcγRIa extracellular domain. The assay is described as above.
On to B1, for which binding was put at a Kd of 0.172 nM.
The molecule B2 yielded a Kd of 0.0901 nM. Compared with the last molecule, the Kd is about 1.9-fold lower.
The molecule B3 displayed a dissociation constant Kd of 0.028 nM.
B4 gave a Kd of 0.169 nM.

Another assay deals with T2, human FcγRIIa R extracellular domain. Described as above.
B1 displayed a Kd of 121 nM.
On to B2, for which the Kd came to 1660 nM.
As to B3, binding was characterised by a dissociation constant (Kd) of 126 nM.
B4: the Kd was determined as 160 nM. The Kd values of the last two molecules are within 1.5-fold of each other.

A further assay has as its target T3, human FcγRIIa H extracellular domain. Described as above.
The molecule B1 returned a Kd of 35 nM.
Molecule B2 gave a Kd of 1120 nM.
Take B3: the affinity, expressed as Kd, was 74.9 nM. This Kd lies about 15-fold lower than the previous one.
In turn, B4 displayed a Kd of 33.2 nM.

In the next assay the target is T7, human FcγRIIIa V extracellular domain. The assay is described as above.
As to B1, the Kd was 3.16 nM.
The molecule B2 came in with a Kd of 358 nM.
In the case of B3, the dissociation constant Kd stood at 0.51 nM.
The molecule B4 registered a Kd of 3.86 nM.

Another assay concerns the target T4, hFcγRIIaH on hFcγRIIaH-expressing …. The assay can be described thus: cell-based or functional assay.
As for B1, the “EC50 value (hFcγRIIaH ADCP Reporter Bioassay, Hepa1-6/hEREG target cells)” value was 0.0158 µg/mL.
Take B3: the “EC50 value (hFcγRIIaH ADCP Reporter Bioassay, Hepa1-6/hEREG target cells)” value was found to be 0.0171 µg/mL.
Turning to B4, the “EC50 value (hFcγRIIaH ADCP Reporter Bioassay, Hepa1-6/hEREG target cells)” value is 0.0245 µg/mL.

For the next assay, the target named is hFcγRIIIaV on hFcγRIIIaV-expressing Jurkat cells (human, UniProt P08637 17-254). Description: cell-based or functional assay.
Chain of hFcγRIIIaV on hFcγRIIIaV-expressing Jurkat cells (P08637 17-254, form in doubt): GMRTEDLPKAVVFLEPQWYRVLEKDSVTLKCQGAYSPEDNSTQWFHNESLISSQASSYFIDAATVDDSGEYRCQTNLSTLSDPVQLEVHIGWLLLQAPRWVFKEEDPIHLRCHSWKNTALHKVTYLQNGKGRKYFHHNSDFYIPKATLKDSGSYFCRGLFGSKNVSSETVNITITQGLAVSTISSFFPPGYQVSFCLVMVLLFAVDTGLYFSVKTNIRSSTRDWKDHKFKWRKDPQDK
Turning to B1, the “EC50 value (hFcγRIIIaV ADCC Reporter Bioassay, Hepa1-6/hEREG target cells)” value stood at 0.00153 µg/mL.
Turning to B2, the “EC50 value (hFcγRIIIaV ADCC Reporter Bioassay, Hepa1-6/hEREG target cells)” value stood at 0.0463 µg/mL.
In the case of B3, the “EC50 value (hFcγRIIIaV ADCC Reporter Bioassay, Hepa1-6/hEREG target cells)” value came to 0.00107 µg/mL.
With B4, the “EC50 value (hFcγRIIIaV ADCC Reporter Bioassay, Hepa1-6/hEREG target cells)” value was determined as 0.00167 µg/mL.

Another assay has as its target T8, human C1q protein (Calbiochem) (human, UniProt P02745 23-245; P02746 28-253; P02747 29-245).
T8 construct: bought; also called hC1q
The assay can be described thus: ELISA: antibody coated on the plate at the varied concentration, hC1q 3 µg/mL added, detected with HRP-conjugated anti-hC1q antibody, O.D (450-690nm).
Protocol: The antigen used was a human C1q protein (hC1q).
First, a 96-well maxisorp plate (Thermo fisher) was coated at 4° C. overnight with 50 μL of solutions containing each antibody prepared at 30, 10, 3, 1, 0.3, 0.1, and 0.03 μg/mL in PBS. Each well of the plate was washed with Wash buffer to remove the antibody not bound to the plate, and then the wells were blocked with 200 μL of Blocking/dilution Buffer at room temperature for 2 hours or longer. After the Blocking/dilution Buffer was removed from each well, hC1q (Calbiochem) prepared such that the final concentration was 3 μg/mL in Blocking/dilution Buffer was added at 50 μL per well. The plate was then allowed to stand at room temperature for 1 hour to allow hC1q to bind to the antibody within each well. After washing with Wash Buffer, 50 μL of an HRP-conjugated anti-hC1q antibody (AbDSerotec) diluted with Blocking/dilution Buffer was added to each well, and the plate was incubated while standing for 1 hour. After washing with Wash Buffer, TMB single solution (Invitrogen) was added. The color development reaction of the solution in each well was stopped by addition of Stop Buffer, and then the developed color was measured by absorbance at 450 nm and 690 nm.
Consider B1, for which the binding result was “binds”.
On the same count and under the same terms, for B2 the value was “binds”; for B3, “binds”.
On to B4, for which the binding result is recorded as “binds”.

The next assay has as its target T5, human FcγRIIIa F extracellular domain. Description: SPR Biacore 8K+; KD for FcγRIIb divided by KD for this FcγR.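 Note: antibodies captured on an anti-human Fab kappa SA chip with soluble human FcγR ectodomains flowed over, FcγRIIb KD from steady-state fit, other FcγR KD from Langmuir model.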
B1: the “A/I ratio (KD for FcγRIIb divided by KD for each FcγR)” value stood at 396.
As to B2, the “A/I ratio (KD for FcγRIIb divided by KD for each FcγR)” value worked out at 3.4.
In the case of B3, the “A/I ratio (KD for FcγRIIb divided by KD for each FcγR)” value is 2350.
As for B4, the “A/I ratio (KD for FcγRIIb divided by KD for each FcγR)” value was 399.

The next assay concerns the target T2, human FcγRIIa R extracellular domain. Described as above.
On to B1, for which the “A/I ratio (KD for FcγRIIb divided by KD for each FcγR)” value was determined as 52.4.
As to B2, the “A/I ratio (KD for FcγRIIb divided by KD for each FcγR)” value was 6.1.
With B3, the “A/I ratio (KD for FcγRIIb divided by KD for each FcγR)” value was 28.1.
On to B4, for which the “A/I ratio (KD for FcγRIIb divided by KD for each FcγR)” value was determined as 49.9.

The next assay addresses T3, human FcγRIIa H extracellular domain. Described as above.
As for B1, the “A/I ratio (KD for FcγRIIb divided by KD for each FcγR)” value was 181.
In the case of B2, the “A/I ratio (KD for FcγRIIb divided by KD for each FcγR)” value turned out to be 8.9.
Still for that read-out and setting: for B3 the value was 47.2; for B4, 240.

The next assay concerns the target T7, human FcγRIIIa V extracellular domain. The description is as above.
As for B1, the “A/I ratio (KD for FcγRIIb divided by KD for each FcγR)” value worked out at 2000.
Regarding B2, the “A/I ratio (KD for FcγRIIb divided by KD for each FcγR)” value was 28.1.
On the same count and under the same terms, the result for B3 reads 6850; that for B4, 2060.

Another assay deals with T1, human FcγRIIb extracellular domain. Description: SPR Biacore 8K+, antibody captured, FcγR as analyte, steady state affinity model.
Protocol: The interaction between the produced antibodies and human FcγRs was analyzed using Biacore 8K+ by the method below. For the running buffer, 50 mM Na-Phosphate, 150 mM NaCl, and 0.05% Tween20 (pH 7.4) was used, and measurement was performed at 25° C. The sensor chip used was a Series S SA chip (GE Healthcare) onto which CaptureSelect Human Fab-kappa Kinetics Biotin Conjugate (Thermo Fisher Scientific) was immobilized. An antibody of interest was captured onto this chip, and each FcγR diluted with the running buffer was allowed to interact with it. The chip was regenerated using 10 mM Glycine-HCl (pH 1.5), and repeatedly used to capture antibodies and perform measurement. The dissociation constants KD (mol/L) of each antibody for FcγRs were calculated using Biacore Insight Evaluation Software, with a steady state affinity model for the dissociation constant for FcγRIIb and a 1:1 Langmuir binding model for the dissociation constants for the other FcγRs (Table 48).
Molecule B1 returned a Kd of 6330 nM.
B2 registered a Kd of 10100 nM.
The molecule B3 showed a Kd of 3530 nM. Against the preceding molecule, the Kd is about 2.9-fold lower.
The molecule B4 had a Kd of 7960 nM.
